Reference: US20240261333A1 (published 2024)

Assays:
Assay in all cases: co-IP with anti-FLAG, C-FLAG B3GNT2, mass spectrometry
S100A7 = molecular target: T1, S100A7 (human, UniProt P31151 2-101)
T1 construct: also called NP_002954.2
T1 sequence (looked up): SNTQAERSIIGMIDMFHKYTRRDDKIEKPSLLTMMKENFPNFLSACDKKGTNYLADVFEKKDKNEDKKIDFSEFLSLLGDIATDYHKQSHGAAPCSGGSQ
Method: (§1) Cells were plated in 10-cm cell culture dishes and grown to 60-80% confluency. For each condition, two biological replicates were harvested for co-IP. Cells were washed with PBS and 4 mL of lysis buffer (20 mM HEPES, 1% Triton X-100, 150 mM NaCl, 1 mM EDTA, and 10% glycerol) containing protease inhibitor cocktail was added. Cells were scraped and lysate was incubated at 4° C. under rotary agitation for 1 h. Lysate was centrifuged at 14,000×g for 10 min at 4° C. Supernatant was transferred to a new tube and an aliquot was taken as the input. […] For Western blots, 10 μg/mL Chicken Anti-FLAG (Aves labs ET-DY100) and IgY control (R&D Systems AB-101-C) antibodies were biotinylated (Thermo Fisher Scientific 90407) and added to the respective conditions. Lysates with antibodies were incubated at 4° C. under rotary agitation overnight. For each mL of lysate, 50 μL of Pierce Protein A/G Magnetic Beads (Mass spectrometry; Thermo Fisher Scientific 88803) or Pierce Streptavidin Magnetic Beads (Western blot; Thermo Fisher Scientific 88817) was washed twice with lysis buffer. Lysates with antibodies were added to the beads and incubated at 4° C. under rotary agitation for 4 h. Beads were washed with lysis buffer 3 times and resuspended in lysis buffer for storage.
(§2) Magnetic beads were resuspended in 100 mM Tris pH 7.8, reduced, alkylated and digested with trypsin at 37° ° C. overnight. This solution was subjected to solid phase extraction to concentrate the peptides and remove unwanted reagents followed by injection onto a Shimadzu HPLC with fraction collector. Eight fractions were collected and after concentration were injected on a Waters NanoAcquity HPLC equipped with a self-packed Aeris 3 μm C18 analytical column 0.075 mm by 20 cm, (Phenomenex). Peptides were eluted using standard reverse-phase gradients. The effluent from the column was analyzed using a Thermo Orbitrap Elite mass spectrometer (nanospray configuration) operated in a data dependent manner for 54 minutes. The resulting fragmentation spectra were correlated against the known database using Proteome Discover 1.4 (Thermo Fisher Scientific).

YBX1 = molecular target: T2, YBX1 (human, UniProt P67809 2-324)
T2 construct: also called NP_004550.2
T2 sequence (P67809 2-324 limits assumed): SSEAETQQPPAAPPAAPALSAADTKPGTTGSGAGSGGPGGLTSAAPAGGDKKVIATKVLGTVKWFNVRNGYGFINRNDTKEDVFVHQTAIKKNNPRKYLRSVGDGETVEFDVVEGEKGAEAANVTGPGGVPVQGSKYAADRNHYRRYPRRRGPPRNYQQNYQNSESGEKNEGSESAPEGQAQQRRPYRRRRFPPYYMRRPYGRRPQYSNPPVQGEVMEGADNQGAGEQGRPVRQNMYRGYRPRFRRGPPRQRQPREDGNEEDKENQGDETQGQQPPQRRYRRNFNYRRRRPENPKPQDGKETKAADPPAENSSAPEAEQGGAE
Method: as §1, §2

RPL38 = RPL38 (human, UniProt P63173 1-70)
Method: as §1, §2

LGALS7B = molecular target: T3, LGALS7B (human, UniProt P47929 1-136)
T3 construct: also called NP_001035972.1
T3 sequence (P47929 whole entry): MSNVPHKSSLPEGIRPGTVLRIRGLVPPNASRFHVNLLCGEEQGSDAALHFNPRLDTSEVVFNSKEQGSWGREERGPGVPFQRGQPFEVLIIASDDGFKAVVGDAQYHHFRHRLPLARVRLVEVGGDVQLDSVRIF
Method: as §1, §2

DDX3X = molecular target: T4, DDX3X (human, UniProt O00571 2-662)
T4 construct: also called NP_001180345.1 (+1)
T4 sequence (O00571 2-662 limits assumed): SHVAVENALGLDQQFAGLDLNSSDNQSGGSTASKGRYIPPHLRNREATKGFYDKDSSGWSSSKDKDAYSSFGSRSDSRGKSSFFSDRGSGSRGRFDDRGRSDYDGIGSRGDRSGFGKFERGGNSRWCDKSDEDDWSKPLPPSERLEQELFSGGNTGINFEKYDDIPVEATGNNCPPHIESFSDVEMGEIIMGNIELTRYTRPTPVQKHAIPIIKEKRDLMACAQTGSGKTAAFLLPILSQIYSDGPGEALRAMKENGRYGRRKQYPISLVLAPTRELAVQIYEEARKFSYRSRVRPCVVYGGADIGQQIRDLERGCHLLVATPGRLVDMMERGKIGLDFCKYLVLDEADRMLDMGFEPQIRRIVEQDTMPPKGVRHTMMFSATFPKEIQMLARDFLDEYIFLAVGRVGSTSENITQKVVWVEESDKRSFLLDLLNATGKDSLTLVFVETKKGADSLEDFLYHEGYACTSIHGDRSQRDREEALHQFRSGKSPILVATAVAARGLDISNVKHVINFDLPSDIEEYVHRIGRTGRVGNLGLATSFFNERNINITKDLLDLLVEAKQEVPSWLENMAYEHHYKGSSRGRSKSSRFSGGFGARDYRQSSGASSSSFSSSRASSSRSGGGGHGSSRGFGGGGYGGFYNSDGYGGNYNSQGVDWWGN
Method: as §1, §2

SRSF6 = molecular target: T5, SRSF6 (human, UniProt Q13247 1-344)
T5 construct: also called NP_006266.2
T5 sequence (looked up): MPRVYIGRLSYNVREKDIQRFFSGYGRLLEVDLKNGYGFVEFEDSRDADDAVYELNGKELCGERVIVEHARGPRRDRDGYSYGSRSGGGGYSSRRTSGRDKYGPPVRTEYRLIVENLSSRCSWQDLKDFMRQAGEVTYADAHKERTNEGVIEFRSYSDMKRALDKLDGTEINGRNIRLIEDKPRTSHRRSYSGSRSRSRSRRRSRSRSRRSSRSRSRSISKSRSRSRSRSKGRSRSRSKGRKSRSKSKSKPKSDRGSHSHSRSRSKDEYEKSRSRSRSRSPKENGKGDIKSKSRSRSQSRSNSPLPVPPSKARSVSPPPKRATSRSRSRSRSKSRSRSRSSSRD
Method: as §1, §2

CPSF7 = molecular target: T6, CPSF7 (human, UniProt Q8N684 1-471)
T6 construct: also called NP_001129512.1 (+5)
T6 sequence (looked up): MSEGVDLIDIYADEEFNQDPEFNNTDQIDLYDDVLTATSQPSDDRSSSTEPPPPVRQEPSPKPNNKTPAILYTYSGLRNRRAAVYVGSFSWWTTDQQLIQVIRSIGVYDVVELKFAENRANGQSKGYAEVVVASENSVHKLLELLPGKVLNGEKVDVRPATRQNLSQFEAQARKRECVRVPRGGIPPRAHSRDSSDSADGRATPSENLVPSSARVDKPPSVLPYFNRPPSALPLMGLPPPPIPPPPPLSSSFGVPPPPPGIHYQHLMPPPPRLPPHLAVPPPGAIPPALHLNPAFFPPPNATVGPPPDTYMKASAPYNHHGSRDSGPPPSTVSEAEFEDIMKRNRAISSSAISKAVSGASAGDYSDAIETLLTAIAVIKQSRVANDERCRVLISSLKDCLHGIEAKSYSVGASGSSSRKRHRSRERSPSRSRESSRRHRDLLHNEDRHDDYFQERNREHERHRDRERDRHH
Method: as §1, §2

| Binder | co-IP mass spectrometry count (S100A7) | co-IP mass spectrometry count (YBX1) | co-IP mass spectrometry count (RPL38) | co-IP mass spectrometry count (LGALS7B) | co-IP/MS count, C-term flag (DDX3X) | co-IP/MS count, C-term flag (SRSF6) | co-IP/MS count, C-term flag (CPSF7) |
| --- | --- | --- | --- | --- | --- | --- | --- |
| C-terminal FLAG tagged B3GNT2 (enzyme, human, UniProt Q9NY97 1-397, looked up, FLAG-tagged ORF overexpressed in cells; pulled down from lysate with mouse anti-FLAG; also called C-FLAG B3GNT2; C-term flag; not shown: C-terminal FLAG tag) MSVGRRRIKLLGILMMANVFIYFIMEVSKSSSQEKNGKGEVIIPKEKFWKISTPPEAYWNREQEKLNRQYNPILSMLTNQTGEAGRLSNISHLNYCEPDLRVTSVVTGFNNLPDRFKDFLLYLRCRNYSLLIDQPDKCAKKPFLLLAIKSLTPHFARRQAIRESWGQESNAGNQTVVRVFLLGQTPPEDNHPDLSDMLKFESEKHQDILMWNYRDTFFNLSLKEVLFLRWVSTSCPDTEFVFKGDDDVFVNTHHILNYLNSLSKTKAKDLFIGDVIHNAGPHRDKKLKYYIPEVVYSGLYPPYAGGGGFLYSGHLALRLYHITDQVHLYPIDDVYTGMCLQKLGLVPEKHKGFRTFDIEEKNKNNICSYVDLMLVHSRKPQEMIDIWSQLQSAHLKC | 5 | 9 | 8 | 4 | – | – | – |
| C-terminal FLAG tagged B3GNT2 (enzyme, human, UniProt Q9NY97 1-397, looked up, FLAG-tagged ORF overexpressed in A375 cells; pulled down from the lysate with mouse anti-FLAG; also called C-FLAG B3GNT2; C-term flag; not shown: C-terminal FLAG tag) MSVGRRRIKLLGILMMANVFIYFIMEVSKSSSQEKNGKGEVIIPKEKFWKISTPPEAYWNREQEKLNRQYNPILSMLTNQTGEAGRLSNISHLNYCEPDLRVTSVVTGFNNLPDRFKDFLLYLRCRNYSLLIDQPDKCAKKPFLLLAIKSLTPHFARRQAIRESWGQESNAGNQTVVRVFLLGQTPPEDNHPDLSDMLKFESEKHQDILMWNYRDTFFNLSLKEVLFLRWVSTSCPDTEFVFKGDDDVFVNTHHILNYLNSLSKTKAKDLFIGDVIHNAGPHRDKKLKYYIPEVVYSGLYPPYAGGGGFLYSGHLALRLYHITDQVHLYPIDDVYTGMCLQKLGLVPEKHKGFRTFDIEEKNKNNICSYVDLMLVHSRKPQEMIDIWSQLQSAHLKC | – | – | – | – | 23 | 4 | 9 |
